For experiment [1], the target named is NRP2 a2b1b2 (human neuropilin 2 residues 145 to 595, monomeric IgG1 Fc tag) (human) (UniProt O60462). The experiment in a line: BLI. In general terms: In BLI a coated tip is dipped into the sample, and binding shifts an interference pattern.
For experiment [2], the target named is monoFc-tagged NRP2 (human neuropilin 2 a1a2b1b2, residues 23 to 595) (human) (UniProt O60462). As to the kind of experiment: BLI.
Chain of monoFc-tagged NRP2 (human neuropilin 2 a1a2b1b2, residues 23 to 595) (human) (O60462 23-595): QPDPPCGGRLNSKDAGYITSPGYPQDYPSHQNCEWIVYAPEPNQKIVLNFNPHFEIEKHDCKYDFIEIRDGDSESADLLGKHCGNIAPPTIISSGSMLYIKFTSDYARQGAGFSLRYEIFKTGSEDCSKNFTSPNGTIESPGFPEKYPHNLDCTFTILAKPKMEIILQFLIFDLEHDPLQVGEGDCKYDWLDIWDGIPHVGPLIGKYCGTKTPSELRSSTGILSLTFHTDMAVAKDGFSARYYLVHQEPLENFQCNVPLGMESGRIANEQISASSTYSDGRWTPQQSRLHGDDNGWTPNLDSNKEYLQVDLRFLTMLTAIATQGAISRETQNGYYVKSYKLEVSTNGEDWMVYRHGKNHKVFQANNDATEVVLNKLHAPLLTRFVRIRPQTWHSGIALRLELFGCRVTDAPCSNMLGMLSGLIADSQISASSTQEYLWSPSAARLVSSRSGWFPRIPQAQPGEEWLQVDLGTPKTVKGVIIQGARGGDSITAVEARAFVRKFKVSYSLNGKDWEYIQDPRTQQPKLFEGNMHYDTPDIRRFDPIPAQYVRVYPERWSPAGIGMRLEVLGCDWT

Chain of NRP2 a2b1b2 (human neuropilin 2 residues 145 to 595, monomeric IgG1 Fc tag) (human) (O60462 145-595): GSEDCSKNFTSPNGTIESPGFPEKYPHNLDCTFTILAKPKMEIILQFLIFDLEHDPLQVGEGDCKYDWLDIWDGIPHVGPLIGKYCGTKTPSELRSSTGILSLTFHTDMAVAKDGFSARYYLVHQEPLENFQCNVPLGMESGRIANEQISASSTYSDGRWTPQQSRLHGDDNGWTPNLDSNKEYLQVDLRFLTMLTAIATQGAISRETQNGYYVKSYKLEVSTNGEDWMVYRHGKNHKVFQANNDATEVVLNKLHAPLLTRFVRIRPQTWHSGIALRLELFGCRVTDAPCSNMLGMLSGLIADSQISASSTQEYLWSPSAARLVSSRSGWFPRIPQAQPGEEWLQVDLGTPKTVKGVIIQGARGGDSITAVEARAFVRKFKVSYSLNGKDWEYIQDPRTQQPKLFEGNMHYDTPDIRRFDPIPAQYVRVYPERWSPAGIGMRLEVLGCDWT

Consider “soluble ectodomain of the HCMV Pentamer (strain Towne) (from UniProt P17176 24-718) (complex)”, for which the figures for the Kd in experiment [1] and in experiment [2] were 7.9 nM and 2.2 nM, respectively.

For the origin of these results see PMC8916728.
